Consider 1 molecule from patent US20180112192A1 (NATIONAL TAIWAN UNIVERSITY, published 2018).

The target of the experiment is T1, Wild-type EGFR-GFP (UniProt P00533 25-1210).
T1 construct: whole, on cells; not shown: GFP fusion
The experiment can be described thus: co-localization by confocal and 3D-SIM microscopy, co-overexpression in CL1-5 cells (FIG. 1C). An excerpt: FIGS. 1A-1C show interaction between PINK1 and EGFR in lung adenocarcinoma cells. […] 3D-structured illumination microscopy images specifically disclosed the interaction beneath the cytoplasmic membrane (III and IV).

B1: myc-fused full-length PINK1 construct (amino acids 1-581) (enzyme)
chain: MAVRQALGRGLQLGRALLLRFTGKPGRAYGLGRPGPAAGCVRGERPGWAAGPGAEPRRVGLGLPNRLRFFRQSVAGLAARLQRQFVVRAWGCAGPCGRAVFLAFGLGLGLIEEKQAESRRAVSACQEIQAIFTQKSKPGPDPLDTRRLQGFRLEEYLIGQSIGKGCSAAVYEATMPTLPQNLEVTKSTGLLPGRGPGTSAPGEGQERAPGAPAFPLAIKMMWNISAGSSSEAILNTMSQELVPASRVALAGEYGAVTYRKSKRGPKQLAPHPNIIRVLRAFTSSVPLLPGALVDYPDVLPSRLHPEGLGHGRTLFLVMKNYPCTLRQYLCVNTPSPRLAAMMLLQLLEGVDHLVQQGIAHRDLKSDNILVELDPDGCPWLVIADFGCCLADESIGLQLPFSSWYVDRGGNGCLMAPEVSTARPGPRAVIDYSKADAWAVGAIAYEIFGLVNPFYGQGKAHLESRSYQEAQLPALPESVPPDVRQLVRALLQREASKRPSARVAANVLHLSLWGEHILALKNLKLDKMVGWLLQQSAATLLANRLTEKCCVETKMKMLFLANLECETLCQAALLLCSWRAAL
notes: also called PINK1-myc; not shown: myc tag
Take B1: the binding result is “binds”.
